Experimental data taken from the supplement of paper PMC9233669.
This sample holds only a part of the variants without activity.

What was measured:
biotinyl-Ile-oxazolone = assay: self-aminoacylation, catalytic enhancement (BIO) (fold over background); higher = more active; k-Seq, kA / k0A0; sequences stand for … in GGGAAUGGAUCCACAUCUACGAAUUC…UUCACUGCAGACUUGACGAAGCUG
Outline: (§1)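 Mutagenized RNA pools with a 21-nt variable region (0.43 μM) were reacted with each biotinyl-aminoacyl-oxazolone at 2–1250 μM for 90 minutes at room temperature, in 50 μL HEPES/NaCl/KCl/MgCl2/CaCl2 buffer containing 5% acetonitrile at pH 6.9–7.0. RNA captured on streptavidin was quantified by triplicate qPCR and by Illumina sequencing. The fraction reacted for each sequence was fit to a pseudo-first-order model with bootstrapping, and catalytic enhancement is the median kA divided by the uncatalyzed rate, taken as the low-activity peak of a bimodal Gaussian fit.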

biotinyl-Val-oxazolone = assay: self-aminoacylation, catalytic enhancement (BVO) (fold over background); higher = more active; k-Seq, kA / k0A0; sequences stand for … in GGGAAUGGAUCCACAUCUACGAAUUC…UUCACUGCAGACUUGACGAAGCUG
Outline: as §1

biotinyl-Phe-oxazolone = assay: self-aminoacylation, catalytic enhancement (BFO) (fold over background); higher = more active; k-Seq, kA / k0A0; sequences stand for … in GGGAAUGGAUCCACAUCUACGAAUUC…UUCACUGCAGACUUGACGAAGCUG
Outline: as §1

biotinyl-Leu-oxazolone = assay: self-aminoacylation, catalytic enhancement (BLO) (fold over background); higher = more active; k-Seq, kA / k0A0; sequences stand for … in GGGAAUGGAUCCACAUCUACGAAUUC…UUCACUGCAGACUUGACGAAGCUG
Outline: as §1

biotinyl-Met-oxazolone = assay: self-aminoacylation, catalytic enhancement (BMO) (fold over background); higher = more active; k-Seq, kA / k0A0; sequences stand for … in GGGAAUGGAUCCACAUCUACGAAUUC…UUCACUGCAGACUUGACGAAGCUG
Outline: as §1

biotinyl-Trp-oxazolone = assay: self-aminoacylation, catalytic enhancement (BWO) (fold over background); higher = more active; k-Seq, kA / k0A0; sequences stand for … in GGGAAUGGAUCCACAUCUACGAAUUC…UUCACUGCAGACUUGACGAAGCUG
Outline: as §1

Row | Sequence | self-aminoacylation (biotinyl-Ile-oxazolone) | self-aminoacylation (biotinyl-Val-oxazolone) | self-aminoacylation (biotinyl-Phe-oxazolone) | self-aminoacylation (biotinyl-Leu-oxazolone) | self-aminoacylation (biotinyl-Met-oxazolone) | self-aminoacylation (biotinyl-Trp-oxazolone)
1 | CUACUGAAAACAAUCGGUCUG [Fam1A.1 aminoacylation ribozyme variant] | 0.84 | 0.706 | 0.542 | 0.708 | 0.735 | 0.78
2 | AUUACCCUUGUCAUCGAGUGG [Fam2.1 aminoacylation ribozyme variant] | 1.25 | 1.54 | 1.98 | 1.85 | 2.03 | 1
3 | AUUCAGCUAGGUCAUCGGGAG [Fam2.2 aminoacylation ribozyme variant] | 1.72 | 1.68 | 4.09 | 1.69 | 1.61 | 1.32
4 | AUUCCCCUGGUGAUCGAGUGA [Fam2.1 aminoacylation ribozyme variant] | 3.12 | 3.13 | 36.9 | 5.91 | 5.51 | 6.06
5 | UUUACCCUGGUCAUCAAGUGA [Fam2.1 aminoacylation ribozyme variant] | 1.25 | 1.63 | 3.22 | 1.85 | 2.24 | 3.07
6 | AUUACGCUGGUCAUCGACUGA [Fam2.1 aminoacylation ribozyme variant] | 1.48 | 1.24 | 0.691 | 1.73 | 0.889 | 1.65
7 | AAGUUUGCUAAUAGUCGCAUC [Fam3.1 aminoacylation ribozyme variant] | 0.778 | 0.706 | 1.53 | 0.61 | 0.649 | 0.681
8 | AUUCGUCUAGGUCAUCGGGUG [Fam2.2 aminoacylation ribozyme variant] | 4.9 | 4.85 | 43.2 | 5.27 | 4.96 | 6.11
9 | ACUACCCUAGUCAUCGAGUGA [Fam2.1 aminoacylation ribozyme variant] | 2.95 | 2.64 | 8.71 | 5.39 | 4.62 | 5.01
10 | AUUCACUUAGGUCAUCGGAUG [Fam2.2 aminoacylation ribozyme variant] | 0.701 | 0.714 | 0.46 | 0.579 | 0.766 | 0.528
11 | AUUUCCAUGGUCAUCGAGUGA [Fam2.1 aminoacylation ribozyme variant] | 5.22 | 5.09 | 52.5 | 9.67 | 9.56 | 12
12 | AUUACCCUCGCCAUCGAGUGA [Fam2.1 aminoacylation ribozyme variant] | 3.71 | 3.97 | 41.1 | 7.31 | 6.67 | 8.23
13 | CCACACUUCAAGCAAUUGGAC [Fam1B.1 aminoacylation ribozyme variant] | 0.72 | 0.697 | 0.614 | 0.583 | 0.664 | 0.337
14 | CCGUACUUCAAGCAAUCGGUC [Fam1B.1 aminoacylation ribozyme variant] | 1.16 | 1.3 | 34.5 | 1.42 | 1.06 | 18.4
15 | AUUCACCUAGGUCAUGUGGUG [Fam2.2 aminoacylation ribozyme variant] | 2.18 | 2.1 | 20 | 3.91 | 2.95 | 2.98
16 | AUUAUCCUGGUGAUCGAGUGA [Fam2.1 aminoacylation ribozyme variant] | 3.55 | 3.46 | 45.5 | 7.98 | 7.34 | 9.06
17 | AUUACCCUGCUCAUCGAGUGU [Fam2.1 aminoacylation ribozyme variant] | 0.991 | 0.78 | 1.08 | 0.916 | 1 | 1.36
18 | CCACACUUUCAGCAAUCGGUC [Fam1B.1 aminoacylation ribozyme variant] | 1.01 | 1.09 | 1.04 | 0.966 | 0.799 | 0.664
19 | AAGUAUUCUAAUAGUCGCAAG [Fam3.1 aminoacylation ribozyme variant] | 1.61 | 1.6 | 7.07 | 1.71 | 1.58 | 1.83
20 | AUUUCCCUGGUCACCGAGUGA [Fam2.1 aminoacylation ribozyme variant] | 3.79 | 4.43 | 66.2 | 8.24 | 8.77 | 9.27
21 | AUUACCCUCGUCAUCGAGUGU [Fam2.1 aminoacylation ribozyme variant] | 1.34 | 1.4 | 1.56 | 2 | 1.88 | 1.49
22 | AUUACCCUGGUGAACGAGUGA [Fam2.1 aminoacylation ribozyme variant] | 1.42 | 1.65 | 2.79 | 2.25 | 2.47 | 2.82
23 | AUUCACCCAGGUUAUCGGGUG [Fam2.2 aminoacylation ribozyme variant] | 2.77 | 3.33 | 35.3 | 4.62 | 4.79 | 4.83
24 | AUUACCCUGGUCCUAGAGUGA [Fam2.1 aminoacylation ribozyme variant] | 4.03 | 4.85 | 45.8 | 9.4 | 9.27 | 10.8
25 | UUACUUCAAACAAUCGGUGUG [Fam1A.1 aminoacylation ribozyme variant] | 1.51 | 1.46 | 7.15 | 2.36 | 1.97 | 5.33
26 | CUACUUCAAUCGAUCGGUCUG [Fam1A.1 aminoacylation ribozyme variant] | 0.687 | 0.754 | 0.776 | 0.634 | 0.707 | 0.977

Row | Sequence | self-aminoacylation (biotinyl-Ile-oxazolone) | self-aminoacylation (biotinyl-Val-oxazolone) | self-aminoacylation (biotinyl-Phe-oxazolone) | self-aminoacylation (biotinyl-Leu-oxazolone) | self-aminoacylation (biotinyl-Met-oxazolone) | self-aminoacylation (biotinyl-Trp-oxazolone)
27 | CUACUUCAAACAAACGGUUUG [Fam1A.1 aminoacylation ribozyme variant] | 0.803 | 0.796 | 0.656 | 0.67 | 0.719 | 0.396
28 | AGGUUUGCUAAUAGUCGCAAG [Fam3.1 aminoacylation ribozyme variant] | 1.56 | 1.38 | 22 | 1.41 | 1.75 | 6.61
29 | AUUAACCUAGGUCAUCGGCUG [Fam2.2 aminoacylation ribozyme variant] | 1.35 | 1.59 | 4.37 | 1.35 | 1.49 | 1.57
30 | AUUCACCUAGGUACUCGGGUG [Fam2.2 aminoacylation ribozyme variant] | 2.15 | 2.11 | 29.8 | 3.3 | 2.47 | 2.78
31 | AUUCACCUAGGUCCUCGGAUG [Fam2.2 aminoacylation ribozyme variant] | 0.964 | 0.89 | 0.427 | 1.07 | 0.966 | 0.587
32 | AUUCCCCGGGUCAUCGAGUGA [Fam2.1 aminoacylation ribozyme variant] | 3.32 | 2.92 | 30 | 4.99 | 4.59 | 6.46
33 | CCACACUUGAAGCAAUUGGUC [Fam1B.1 aminoacylation ribozyme variant] | 0.643 | 0.587 | 0.359 | 0.539 | 0.63 | 0.386
34 | CUACUUCAAACGAGCGGUCUG [Fam1A.1 aminoacylation ribozyme variant] | 0.8 | 1.02 | 0.761 | 0.689 | 0.943 | 0.477
35 | AUUACCUUGAUCAUCGAGUGA [Fam2.1 aminoacylation ribozyme variant] | 3.94 | 4.44 | 37.6 | 8.21 | 8.63 | 10.7
36 | AUUCUUCAAACAAUCGGUCUG [Fam1A.1 aminoacylation ribozyme variant] | 0.672 | 0.663 | 1.66 | 0.682 | 0.63 | 1.27
37 | GUUGCCCUGGUCAUCGAGUGA [Fam2.1 aminoacylation ribozyme variant] | 19.1 | 23.4 | 382 | 57.5 | 54.2 | 58.8
38 | AAGUUUGCUAAUUGUCGCAGG [Fam3.1 aminoacylation ribozyme variant] | 1.19 | 1.3 | 2.72 | 1.45 | 1.43 | 1.34
39 | AUUACUCUGGUCAUGGAGUGA [Fam2.1 aminoacylation ribozyme variant] | 2.42 | 2.05 | 3.58 | 3.98 | 3.28 | 3.35
40 | AUUAUCCUGGUCAUCGAGCGA [Fam2.1 aminoacylation ribozyme variant] | 1.77 | 1.41 | 1.01 | 1.83 | 1.59 | 1.46
41 | AUUUACCUAGGUCAUCUGGUG [Fam2.2 aminoacylation ribozyme variant] | 2.15 | 1.95 | 16.8 | 3.75 | 2.73 | 3
42 | AUACUUCAAACAAUCGGUAUG [Fam1A.1 aminoacylation ribozyme variant] | 0.925 | 0.744 | 3.52 | 0.732 | 0.732 | 2.3
43 | CCACACUUAAAGCAAUCCGUC [Fam1B.1 aminoacylation ribozyme variant] | 0.998 | 1.17 | 0.452 | 0.838 | 0.879 | 0.523
44 | AUUACCCUGGUCAUCGAAUGA [Fam2.1 aminoacylation ribozyme variant] | 1 | 1.06 | 0.974 | 1.08 | 1.07 | 0.908
45 | AUUACCCUGGUCAUGGAGUUA [Fam2.1 aminoacylation ribozyme variant] | 1.04 | 1.13 | 0.664 | 0.899 | 1.23 | 0.695
46 | CUCCUGCAAACAAUCGGUCUG [Fam1A.1 aminoacylation ribozyme variant] | 0.858 | 1.06 | 4 | 0.904 | 1.14 | 0.784
47 | AAGAUUGCUAAAAGUCGCAAG [Fam3.1 aminoacylation ribozyme variant] | 1.66 | 1.61 | 3.21 | 1.76 | 1.87 | 1.56
48 | AAGUUUGCCAAUAGUUGCAAG [Fam3.1 aminoacylation ribozyme variant] | 0.948 | 0.866 | 1.39 | 0.958 | 0.895 | 0.808
49 | CCAUACUUCAAGCAAUCGGUC [Fam1B.1 aminoacylation ribozyme variant] | 1.07 | 1.11 | 22.5 | 1.14 | 0.921 | 10.1
50 | UCACACUUCAAGCUAUCGGUC [Fam1B.1 aminoacylation ribozyme variant] | 0.939 | 1.02 | 1.11 | 0.749 | 0.703 | 0.724
51 | AUUCACCUACGUCAUCCGGUG [Fam2.2 aminoacylation ribozyme variant] | 4.29 | 3.84 | 46.7 | 8.48 | 5.94 | 7.01
